Laboratory results taken from patent US5843460.

Molecular target: H. pylori urease (UreA and UreB subunits) expressed in E. coli from the urease gene cluster of pILL763 or pILL753 (Helicobacter pylori)

H. pylori HspB heat shock protein (GroEL-like)
urease activity (Berthelot reaction) of E. coli co-expressing the urease gene cluster and HspA plus HspB: 3 fold

H. pylori HspA heat shock protein (GroES-like)
urease activity (Berthelot reaction) of E. coli co-expressing the urease gene cluster and HspA plus HspB: 3 fold
